Biological target: the molecule itself
Experiment: SEC; elution of purified point mutants compared with WT MtrR (Supplementary Figure S4); S200 column named in the purification

Row | Protein | stoichiometry N
1 | MtrR(H50A) (natural protein, Neisseria gonorrhoeae, MtrR of Neisseria gonorrhoeae, point mutant; Made by site-directed mutagenesis of the mtrR-pMCSG7 construct; source: expressed from the pMCSG7 vector, purified (Ni-NTA, TEV cleavage, Ni-NTA, S200 size exclusion); not shown: His6, N-terminal, cleaved) MRKTKTEALKTKEHLMLAALETFYRKGIARTSLNEIAQAAGVTRGALYWAFKNKEDLFDALFQRICDDIENCIAQDAADAEGGSWTVFRHTLLHFFERLQSNDIHYKFHNILFLKCEHTEQNAAVIAIARKHQAIWREKITAVLTEAVENQDLADDLDKETAVIFIKSTLDGLIWRWFSSGESFDLGKTAPRIIGIMMDNLENHPCLRRK | 2
2 | MtrR wild type (natural protein, MtrR, TetR-family transcriptional repressor of Neisseria gonorrhoeae, product of the mtrR gene; also called WT MtrR; MtrR WT; source: expressed from the pMCSG7 vector, purified (Ni-NTA, TEV cleavage, Ni-NTA, S200 size exclusion); not shown: His6, N-terminal, cleaved) MRKTKTEALKTKEHLMLAALETFYRKGIARTSLNEIAQAAGVTRGALYWHFKNKEDLFDALFQRICDDIENCIAQDAADAEGGSWTVFRHTLLHFFERLQSNDIHYKFHNILFLKCEHTEQNAAVIAIARKHQAIWREKITAVLTEAVENQDLADDLDKETAVIFIKSTLDGLIWRWFSSGESFDLGKTAPRIIGIMMDNLENHPCLRRK | 2
3 | MtrR(T43A) (natural protein, Neisseria gonorrhoeae, MtrR of Neisseria gonorrhoeae, point mutant; Made by site-directed mutagenesis of the mtrR-pMCSG7 construct; source: expressed from the pMCSG7 vector, purified (Ni-NTA, TEV cleavage, Ni-NTA, S200 size exclusion); not shown: His6, N-terminal, cleaved) MRKTKTEALKTKEHLMLAALETFYRKGIARTSLNEIAQAAGVARGALYWHFKNKEDLFDALFQRICDDIENCIAQDAADAEGGSWTVFRHTLLHFFERLQSNDIHYKFHNILFLKCEHTEQNAAVIAIARKHQAIWREKITAVLTEAVENQDLADDLDKETAVIFIKSTLDGLIWRWFSSGESFDLGKTAPRIIGIMMDNLENHPCLRRK | 2
4 | MtrR(R44A) (natural protein, Neisseria gonorrhoeae, MtrR of Neisseria gonorrhoeae, point mutant; Made by site-directed mutagenesis of the mtrR-pMCSG7 construct; source: expressed from the pMCSG7 vector, purified (Ni-NTA, TEV cleavage, Ni-NTA, S200 size exclusion); not shown: His6, N-terminal, cleaved) MRKTKTEALKTKEHLMLAALETFYRKGIARTSLNEIAQAAGVTAGALYWHFKNKEDLFDALFQRICDDIENCIAQDAADAEGGSWTVFRHTLLHFFERLQSNDIHYKFHNILFLKCEHTEQNAAVIAIARKHQAIWREKITAVLTEAVENQDLADDLDKETAVIFIKSTLDGLIWRWFSSGESFDLGKTAPRIIGIMMDNLENHPCLRRK | 2
5 | MtrR(W49F) (natural protein, Neisseria gonorrhoeae, MtrR of Neisseria gonorrhoeae, point mutant; Made by site-directed mutagenesis of the mtrR-pMCSG7 construct; source: expressed from the pMCSG7 vector, purified (Ni-NTA, TEV cleavage, Ni-NTA, S200 size exclusion); not shown: His6, N-terminal, cleaved) MRKTKTEALKTKEHLMLAALETFYRKGIARTSLNEIAQAAGVTRGALYFHFKNKEDLFDALFQRICDDIENCIAQDAADAEGGSWTVFRHTLLHFFERLQSNDIHYKFHNILFLKCEHTEQNAAVIAIARKHQAIWREKITAVLTEAVENQDLADDLDKETAVIFIKSTLDGLIWRWFSSGESFDLGKTAPRIIGIMMDNLENHPCLRRK | 2
6 | MtrR(W49A) (natural protein, Neisseria gonorrhoeae, MtrR of Neisseria gonorrhoeae, point mutant; Made by site-directed mutagenesis of the mtrR-pMCSG7 construct; source: expressed from the pMCSG7 vector, purified (Ni-NTA, TEV cleavage, Ni-NTA, S200 size exclusion); not shown: His6, N-terminal, cleaved) MRKTKTEALKTKEHLMLAALETFYRKGIARTSLNEIAQAAGVTRGALYAHFKNKEDLFDALFQRICDDIENCIAQDAADAEGGSWTVFRHTLLHFFERLQSNDIHYKFHNILFLKCEHTEQNAAVIAIARKHQAIWREKITAVLTEAVENQDLADDLDKETAVIFIKSTLDGLIWRWFSSGESFDLGKTAPRIIGIMMDNLENHPCLRRK | 2
7 | MtrR(G45A) (natural protein, Neisseria gonorrhoeae, MtrR of Neisseria gonorrhoeae, point mutant; Made by site-directed mutagenesis of the mtrR-pMCSG7 construct; source: expressed from the pMCSG7 vector, purified (Ni-NTA, TEV cleavage, Ni-NTA, S200 size exclusion); not shown: His6, N-terminal, cleaved) MRKTKTEALKTKEHLMLAALETFYRKGIARTSLNEIAQAAGVTRAALYWHFKNKEDLFDALFQRICDDIENCIAQDAADAEGGSWTVFRHTLLHFFERLQSNDIHYKFHNILFLKCEHTEQNAAVIAIARKHQAIWREKITAVLTEAVENQDLADDLDKETAVIFIKSTLDGLIWRWFSSGESFDLGKTAPRIIGIMMDNLENHPCLRRK | 2
8 | MtrR(Y48F) (natural protein, Neisseria gonorrhoeae, MtrR of Neisseria gonorrhoeae, point mutant; Made by site-directed mutagenesis of the mtrR-pMCSG7 construct; source: expressed from the pMCSG7 vector, purified (Ni-NTA, TEV cleavage, Ni-NTA, S200 size exclusion); not shown: His6, N-terminal, cleaved) MRKTKTEALKTKEHLMLAALETFYRKGIARTSLNEIAQAAGVTRGALFWHFKNKEDLFDALFQRICDDIENCIAQDAADAEGGSWTVFRHTLLHFFERLQSNDIHYKFHNILFLKCEHTEQNAAVIAIARKHQAIWREKITAVLTEAVENQDLADDLDKETAVIFIKSTLDGLIWRWFSSGESFDLGKTAPRIIGIMMDNLENHPCLRRK | 2
9 | MtrR(T11A) (natural protein, Neisseria gonorrhoeae, MtrR of Neisseria gonorrhoeae, point mutant; Made by site-directed mutagenesis of the mtrR-pMCSG7 construct; source: expressed from the pMCSG7 vector, purified (Ni-NTA, TEV cleavage, Ni-NTA, S200 size exclusion); not shown: His6, N-terminal, cleaved) MRKTKTEALKAKEHLMLAALETFYRKGIARTSLNEIAQAAGVTRGALYWHFKNKEDLFDALFQRICDDIENCIAQDAADAEGGSWTVFRHTLLHFFERLQSNDIHYKFHNILFLKCEHTEQNAAVIAIARKHQAIWREKITAVLTEAVENQDLADDLDKETAVIFIKSTLDGLIWRWFSSGESFDLGKTAPRIIGIMMDNLENHPCLRRK | 2
10 | MtrR(T43S) (natural protein, Neisseria gonorrhoeae, MtrR of Neisseria gonorrhoeae, point mutant; Made by site-directed mutagenesis of the mtrR-pMCSG7 construct; source: expressed from the pMCSG7 vector, purified (Ni-NTA, TEV cleavage, Ni-NTA, S200 size exclusion); not shown: His6, N-terminal, cleaved) MRKTKTEALKTKEHLMLAALETFYRKGIARTSLNEIAQAAGVSRGALYWHFKNKEDLFDALFQRICDDIENCIAQDAADAEGGSWTVFRHTLLHFFERLQSNDIHYKFHNILFLKCEHTEQNAAVIAIARKHQAIWREKITAVLTEAVENQDLADDLDKETAVIFIKSTLDGLIWRWFSSGESFDLGKTAPRIIGIMMDNLENHPCLRRK | 2

Biological target: the molecule itself
Experiment: crystal structure; MtrR dimer bound to a 21-mer operator oligoduplex (Semet-MtrR with rpoH, native MtrR with mtrCDE); hanging drop, 200 mM calcium acetate, 27% PEG 8000, 100 mM Tris pH 7.5

Row | Protein | binding result
11 | Selenomethionine-derivatized MtrR (natural protein, selenomethionine-derivatized, MtrR, TetR-family transcriptional repressor of Neisseria gonorrhoeae, product of the mtrR gene; Same construct as m1 with methionines as selenomethionine; also called Semet-MtrR; not shown: His6, N-terminal, cleaved) MRKTKTEALKTKEHLMLAALETFYRKGIARTSLNEIAQAAGVTRGALYWHFKNKEDLFDALFQRICDDIENCIAQDAADAEGGSWTVFRHTLLHFFERLQSNDIHYKFHNILFLKCEHTEQNAAVIAIARKHQAIWREKITAVLTEAVENQDLADDLDKETAVIFIKSTLDGLIWRWFSSGESFDLGKTAPRIIGIMMDNLENHPCLRRK | binds

From PMC8053128, “Structures of Neisseria gonorrhoeae MtrR-operator complexes reveal molecular mechanisms of DNA recognition and antibiotic resistance-conferring clinical mutations” (Nucleic Acids Research, 2021)
